Values quoted from earlier work, collected in article PMC4468388.

Target: insulin receptor (Homo sapiens) (UniProt P06213)
UniProt P06213, sequence (P06213 763-1382): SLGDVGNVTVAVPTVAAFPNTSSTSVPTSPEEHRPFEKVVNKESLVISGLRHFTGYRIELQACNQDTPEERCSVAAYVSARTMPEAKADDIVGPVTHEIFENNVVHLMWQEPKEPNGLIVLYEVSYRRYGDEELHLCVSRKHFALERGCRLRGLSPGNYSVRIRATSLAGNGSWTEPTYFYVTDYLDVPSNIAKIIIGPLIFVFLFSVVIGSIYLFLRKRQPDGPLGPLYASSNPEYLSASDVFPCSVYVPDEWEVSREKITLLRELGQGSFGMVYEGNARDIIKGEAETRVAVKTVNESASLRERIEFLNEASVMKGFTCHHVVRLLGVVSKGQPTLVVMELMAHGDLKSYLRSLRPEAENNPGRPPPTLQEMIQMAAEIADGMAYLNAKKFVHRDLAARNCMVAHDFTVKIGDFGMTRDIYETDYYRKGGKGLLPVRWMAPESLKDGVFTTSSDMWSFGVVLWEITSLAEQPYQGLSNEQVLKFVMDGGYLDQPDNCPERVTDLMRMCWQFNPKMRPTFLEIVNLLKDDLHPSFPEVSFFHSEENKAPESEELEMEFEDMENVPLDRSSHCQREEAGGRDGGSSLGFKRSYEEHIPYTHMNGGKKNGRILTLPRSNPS

insulin, sequence (P01308 90-110): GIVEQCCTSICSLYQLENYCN

In the case of insulin (from UniProt P01308), the Kd is listed as less than 1 nM.
